System: peptide library, one residue held at a place counted from the S/T acceptor
Experiment: relative phosphorylation of the sub-library (ratio to the mean residue at this position); human; higher = residue favoured
Settings: pThr fixed; at -4
Procedure, shortened: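 In 384-well plates, purified recombinant kinases (human or orthologue constructs) were incubated for 90 min under kinase-specific conditions with 50 μM biotinylated degenerate peptide sub-libraries and 50 μM ATP spiked with γ-32P-ATP. Each sub-library fixed a single residue at one position around a central Ser/Thr. Relative sub-library phosphorylation, measured by phosphorimaging and densitometry of streptavidin membrane spots, is given as a ratio to the mean residue at that position.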

Chain of CDK10, construct: Full length (Q15131 whole entry, looked up): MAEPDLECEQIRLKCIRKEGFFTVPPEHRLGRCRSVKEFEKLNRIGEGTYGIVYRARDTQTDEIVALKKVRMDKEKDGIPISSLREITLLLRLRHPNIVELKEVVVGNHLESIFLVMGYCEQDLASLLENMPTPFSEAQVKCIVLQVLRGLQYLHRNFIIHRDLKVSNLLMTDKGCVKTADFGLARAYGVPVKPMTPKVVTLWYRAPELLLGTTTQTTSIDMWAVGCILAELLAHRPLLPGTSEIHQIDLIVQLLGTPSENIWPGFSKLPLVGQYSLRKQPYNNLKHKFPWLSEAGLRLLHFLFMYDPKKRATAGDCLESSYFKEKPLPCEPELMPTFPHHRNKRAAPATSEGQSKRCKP
Chain of NEK6, construct: Full length (Q9HC98 whole entry, looked up): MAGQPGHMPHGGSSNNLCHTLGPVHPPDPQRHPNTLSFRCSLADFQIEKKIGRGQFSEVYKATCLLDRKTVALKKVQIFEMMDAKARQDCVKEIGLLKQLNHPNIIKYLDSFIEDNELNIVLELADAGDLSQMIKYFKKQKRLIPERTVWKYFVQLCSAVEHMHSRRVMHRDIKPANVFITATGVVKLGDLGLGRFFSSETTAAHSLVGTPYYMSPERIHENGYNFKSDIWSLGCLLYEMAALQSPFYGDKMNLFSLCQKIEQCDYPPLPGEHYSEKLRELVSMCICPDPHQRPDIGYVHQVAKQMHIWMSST
Chain of SIK3, construct: aa1-307 (Q9Y2K2 1-307, looked up): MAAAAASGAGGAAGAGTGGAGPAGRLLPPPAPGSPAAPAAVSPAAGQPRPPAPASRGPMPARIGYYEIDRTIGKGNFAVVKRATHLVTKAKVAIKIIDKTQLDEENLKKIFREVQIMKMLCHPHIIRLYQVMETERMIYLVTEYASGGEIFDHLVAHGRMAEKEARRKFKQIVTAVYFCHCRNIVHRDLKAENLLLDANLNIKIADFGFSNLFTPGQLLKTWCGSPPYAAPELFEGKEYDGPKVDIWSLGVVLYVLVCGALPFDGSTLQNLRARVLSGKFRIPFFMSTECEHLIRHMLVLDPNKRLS
Chain of TNIK, construct: aa1-314 (Q9UKE5 1-314, looked up): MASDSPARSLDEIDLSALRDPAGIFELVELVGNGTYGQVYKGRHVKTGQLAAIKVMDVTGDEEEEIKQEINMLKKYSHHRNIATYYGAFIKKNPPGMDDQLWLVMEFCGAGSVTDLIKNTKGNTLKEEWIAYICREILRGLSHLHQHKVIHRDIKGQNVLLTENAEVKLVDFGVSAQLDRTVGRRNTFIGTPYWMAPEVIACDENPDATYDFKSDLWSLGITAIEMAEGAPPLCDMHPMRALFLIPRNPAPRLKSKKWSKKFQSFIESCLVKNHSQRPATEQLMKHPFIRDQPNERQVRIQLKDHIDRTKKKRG
Chain of MAP4K5, construct: Full length (Q9Y4K4 whole entry, looked up): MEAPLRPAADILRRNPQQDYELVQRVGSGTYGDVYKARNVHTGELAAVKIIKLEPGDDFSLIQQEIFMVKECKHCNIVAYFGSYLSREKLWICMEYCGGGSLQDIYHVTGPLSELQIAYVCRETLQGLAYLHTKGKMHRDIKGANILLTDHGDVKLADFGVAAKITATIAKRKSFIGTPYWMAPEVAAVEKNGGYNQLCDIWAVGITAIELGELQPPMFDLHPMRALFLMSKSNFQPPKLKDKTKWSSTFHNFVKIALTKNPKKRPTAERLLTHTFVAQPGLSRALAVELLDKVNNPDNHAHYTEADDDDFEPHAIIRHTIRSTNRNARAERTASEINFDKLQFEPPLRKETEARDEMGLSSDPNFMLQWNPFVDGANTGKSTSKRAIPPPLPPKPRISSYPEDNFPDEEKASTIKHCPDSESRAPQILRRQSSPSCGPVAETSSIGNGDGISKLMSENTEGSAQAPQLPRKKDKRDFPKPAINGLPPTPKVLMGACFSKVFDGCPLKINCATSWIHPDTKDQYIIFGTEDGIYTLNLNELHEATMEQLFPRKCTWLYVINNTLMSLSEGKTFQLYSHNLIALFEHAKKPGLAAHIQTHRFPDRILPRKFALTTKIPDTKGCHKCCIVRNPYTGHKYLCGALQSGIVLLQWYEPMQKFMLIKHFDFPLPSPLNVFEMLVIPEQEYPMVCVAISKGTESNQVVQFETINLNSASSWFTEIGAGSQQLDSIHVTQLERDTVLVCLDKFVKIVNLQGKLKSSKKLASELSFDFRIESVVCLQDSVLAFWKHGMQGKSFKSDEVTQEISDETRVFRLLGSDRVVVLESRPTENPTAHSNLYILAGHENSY
Chain of IKBKE, construct: Full length (Q14164 whole entry, looked up): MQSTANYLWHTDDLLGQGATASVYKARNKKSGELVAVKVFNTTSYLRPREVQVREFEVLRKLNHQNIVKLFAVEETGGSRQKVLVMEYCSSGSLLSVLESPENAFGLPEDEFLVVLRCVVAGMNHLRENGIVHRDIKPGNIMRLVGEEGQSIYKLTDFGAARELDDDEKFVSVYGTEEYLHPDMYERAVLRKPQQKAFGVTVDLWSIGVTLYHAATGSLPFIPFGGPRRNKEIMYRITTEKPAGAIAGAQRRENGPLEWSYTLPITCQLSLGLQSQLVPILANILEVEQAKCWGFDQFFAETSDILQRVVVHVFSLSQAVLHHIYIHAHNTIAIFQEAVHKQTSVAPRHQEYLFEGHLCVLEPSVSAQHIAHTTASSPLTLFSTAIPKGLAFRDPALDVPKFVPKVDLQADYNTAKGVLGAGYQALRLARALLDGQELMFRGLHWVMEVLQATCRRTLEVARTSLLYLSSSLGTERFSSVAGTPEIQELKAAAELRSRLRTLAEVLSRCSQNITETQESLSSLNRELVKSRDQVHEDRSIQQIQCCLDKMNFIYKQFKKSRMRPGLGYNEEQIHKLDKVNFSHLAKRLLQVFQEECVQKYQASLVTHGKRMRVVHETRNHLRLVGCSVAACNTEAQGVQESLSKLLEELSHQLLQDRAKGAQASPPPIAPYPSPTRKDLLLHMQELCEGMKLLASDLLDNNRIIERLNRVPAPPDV
Chain of SLK, construct: Full length (Q9H2G2 whole entry, looked up): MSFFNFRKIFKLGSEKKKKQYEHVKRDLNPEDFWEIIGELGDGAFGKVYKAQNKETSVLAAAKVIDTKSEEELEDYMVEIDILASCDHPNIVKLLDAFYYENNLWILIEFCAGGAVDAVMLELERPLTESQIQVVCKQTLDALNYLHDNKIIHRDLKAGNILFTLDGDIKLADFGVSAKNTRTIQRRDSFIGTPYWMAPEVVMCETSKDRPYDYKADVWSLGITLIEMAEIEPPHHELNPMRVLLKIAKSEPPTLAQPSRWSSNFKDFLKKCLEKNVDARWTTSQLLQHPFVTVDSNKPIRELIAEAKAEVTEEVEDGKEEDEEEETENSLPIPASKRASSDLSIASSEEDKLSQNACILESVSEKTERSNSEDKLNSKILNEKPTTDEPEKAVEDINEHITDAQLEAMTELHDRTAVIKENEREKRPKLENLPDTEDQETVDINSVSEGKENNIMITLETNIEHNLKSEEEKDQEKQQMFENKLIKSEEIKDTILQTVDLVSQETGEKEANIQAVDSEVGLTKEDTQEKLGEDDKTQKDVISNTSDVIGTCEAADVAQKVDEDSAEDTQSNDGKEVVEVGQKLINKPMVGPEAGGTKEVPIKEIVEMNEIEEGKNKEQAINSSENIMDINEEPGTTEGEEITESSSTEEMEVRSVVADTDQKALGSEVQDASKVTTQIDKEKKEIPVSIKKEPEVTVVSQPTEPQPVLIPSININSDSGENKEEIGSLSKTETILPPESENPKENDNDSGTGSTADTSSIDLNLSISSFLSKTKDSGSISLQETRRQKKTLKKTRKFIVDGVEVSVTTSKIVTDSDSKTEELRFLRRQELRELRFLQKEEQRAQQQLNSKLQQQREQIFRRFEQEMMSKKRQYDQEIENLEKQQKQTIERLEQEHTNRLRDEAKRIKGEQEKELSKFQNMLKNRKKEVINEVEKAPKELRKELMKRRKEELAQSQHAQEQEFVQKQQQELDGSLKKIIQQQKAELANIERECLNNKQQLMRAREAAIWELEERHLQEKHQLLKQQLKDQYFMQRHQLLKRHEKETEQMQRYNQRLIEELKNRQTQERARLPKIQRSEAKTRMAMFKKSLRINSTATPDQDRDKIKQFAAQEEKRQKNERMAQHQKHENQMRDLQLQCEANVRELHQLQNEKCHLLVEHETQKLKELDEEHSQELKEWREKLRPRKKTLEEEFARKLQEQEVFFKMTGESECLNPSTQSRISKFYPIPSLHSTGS

Compared with “MAP4K5, construct: Full length (from UniProt Q9Y4K4)”, “NEK6, construct: Full length (from UniProt Q9HC98)” is lower in relative phosphorylation: 0.936 for the first, 0.906 for the second.

Compared with “SIK3, construct: aa1-307 (from UniProt Q9Y2K2)”, “TNIK, construct: aa1-314 (from UniProt Q9UKE5)” is higher in relative phosphorylation: 0.647 for the first, 0.945 for the second.

Compared with “SLK, construct: Full length (from UniProt Q9H2G2)”, “CDK10, construct: Full length (from UniProt Q15131)” is lower in relative phosphorylation: 1.28 for the first, 0.941 for the second.

Same assay, conditions: pThr fixed; at -5

Going from “PKN2, construct: aa501-984 (from UniProt Q16513)” to “IKBKE, construct: Full length (from UniProt Q14164)”, the relative phosphorylation rises from 0.683 to 1.

First: MAP4K5, construct: Full length (from UniProt Q9Y4K4)
Second: NEK6, construct: Full length (from UniProt Q9HC98)
The relative phosphorylation of the first is higher: 1.02 for the first, 0.992 for the second.

First: SIK3, construct: aa1-307 (from UniProt Q9Y2K2)
Second: TNIK, construct: aa1-314 (from UniProt Q9UKE5)
The relative phosphorylation of the first is lower: 0.667 for the first, 1 for the second.

Compared with “SLK, construct: Full length (from UniProt Q9H2G2)”, “CDK10, construct: Full length (from UniProt Q15131)” is lower in relative phosphorylation: 1.27 for the first, 0.789 for the second.

Same assay, conditions: pTyr fixed; at +1

Compared with “PKN2, construct: aa501-984 (from UniProt Q16513)”, “IKBKE, construct: Full length (from UniProt Q14164)” is lower in relative phosphorylation: 0.572 for the first, 0.448 for the second.

Compared with “MAP4K5, construct: Full length (from UniProt Q9Y4K4)”, “NEK6, construct: Full length (from UniProt Q9HC98)” is higher in relative phosphorylation: 0.326 for the first, 0.822 for the second.

Compared with “SIK3, construct: aa1-307 (from UniProt Q9Y2K2)”, “TNIK, construct: aa1-314 (from UniProt Q9UKE5)” is lower in relative phosphorylation: 0.487 for the first, 0.42 for the second.

Compared with “SLK, construct: Full length (from UniProt Q9H2G2)”, “CDK10, construct: Full length (from UniProt Q15131)” is higher in relative phosphorylation: 0.455 for the first, 0.461 for the second.

Same assay, conditions: pTyr fixed; at +2

First: PKN2, construct: aa501-984 (from UniProt Q16513)
Second: IKBKE, construct: Full length (from UniProt Q14164)
The relative phosphorylation of the first is higher: 0.884 for the first, 0.8 for the second.

First: MAP4K5, construct: Full length (from UniProt Q9Y4K4)
Second: NEK6, construct: Full length (from UniProt Q9HC98)
The relative phosphorylation of the first is higher: 0.397 for the first, 0.356 for the second.

Going from “SIK3, construct: aa1-307 (from UniProt Q9Y2K2)” to “TNIK, construct: aa1-314 (from UniProt Q9UKE5)”, the relative phosphorylation rises from 0.297 to 0.505.

Compared with “SLK, construct: Full length (from UniProt Q9H2G2)”, “CDK10, construct: Full length (from UniProt Q15131)” is lower in relative phosphorylation: 0.581 for the first, 0.367 for the second.

Same assay, conditions: pTyr fixed; at +3

First: PKN2, construct: aa501-984 (from UniProt Q16513)
Second: IKBKE, construct: Full length (from UniProt Q14164)
The relative phosphorylation of the first is lower: 0.864 for the first, 1.07 for the second.

Going from “MAP4K5, construct: Full length (from UniProt Q9Y4K4)” to “NEK6, construct: Full length (from UniProt Q9HC98)”, the relative phosphorylation falls from 0.716 to 0.653.

Compared with “SIK3, construct: aa1-307 (from UniProt Q9Y2K2)”, “TNIK, construct: aa1-314 (from UniProt Q9UKE5)” is higher in relative phosphorylation: 0.335 for the first, 0.638 for the second.

Compared with “SLK, construct: Full length (from UniProt Q9H2G2)”, “CDK10, construct: Full length (from UniProt Q15131)” is lower in relative phosphorylation: 0.811 for the first, 0.508 for the second.

Same assay, conditions: pTyr fixed; at +4

Going from “PKN2, construct: aa501-984 (from UniProt Q16513)” to “IKBKE, construct: Full length (from UniProt Q14164)”, the relative phosphorylation rises from 0.666 to 0.934.

First: MAP4K5, construct: Full length (from UniProt Q9Y4K4)
Second: NEK6, construct: Full length (from UniProt Q9HC98)
The relative phosphorylation of the first is higher: 0.56 for the first, 0.545 for the second.

Going from “SIK3, construct: aa1-307 (from UniProt Q9Y2K2)” to “TNIK, construct: aa1-314 (from UniProt Q9UKE5)”, the relative phosphorylation rises from 0.324 to 0.581.

First: SLK, construct: Full length (from UniProt Q9H2G2)
Second: CDK10, construct: Full length (from UniProt Q15131)
The relative phosphorylation of the first is higher: 0.641 for the first, 0.431 for the second.

Same assay, conditions: pTyr fixed; at -1

First: PKN2, construct: aa501-984 (from UniProt Q16513)
Second: IKBKE, construct: Full length (from UniProt Q14164)
The relative phosphorylation of the first is lower: 0.856 for the first, 1.18 for the second.

Going from “MAP4K5, construct: Full length (from UniProt Q9Y4K4)” to “NEK6, construct: Full length (from UniProt Q9HC98)”, the relative phosphorylation rises from 0.602 to 2.57.

Going from “SIK3, construct: aa1-307 (from UniProt Q9Y2K2)” to “TNIK, construct: aa1-314 (from UniProt Q9UKE5)”, the relative phosphorylation rises from 0.589 to 1.02.

First: SLK, construct: Full length (from UniProt Q9H2G2)
Second: CDK10, construct: Full length (from UniProt Q15131)
The relative phosphorylation of the first is higher: 0.392 for the first, 0.375 for the second.

Same assay, conditions: pTyr fixed; at -2

Compared with “PKN2, construct: aa501-984 (from UniProt Q16513)”, “IKBKE, construct: Full length (from UniProt Q14164)” is higher in relative phosphorylation: 0.711 for the first, 1.29 for the second.

Compared with “MAP4K5, construct: Full length (from UniProt Q9Y4K4)”, “NEK6, construct: Full length (from UniProt Q9HC98)” is higher in relative phosphorylation: 0.695 for the first, 1.53 for the second.

First: SIK3, construct: aa1-307 (from UniProt Q9Y2K2)
Second: TNIK, construct: aa1-314 (from UniProt Q9UKE5)
The relative phosphorylation of the first is lower: 0.442 for the first, 0.969 for the second.

Going from “SLK, construct: Full length (from UniProt Q9H2G2)” to “CDK10, construct: Full length (from UniProt Q15131)”, the relative phosphorylation falls from 0.921 to 0.388.

Same assay, conditions: pTyr fixed; at -3

First: PKN2, construct: aa501-984 (from UniProt Q16513)
Second: IKBKE, construct: Full length (from UniProt Q14164)
The relative phosphorylation of the first is lower: 0.977 for the first, 1.67 for the second.

Compared with “MAP4K5, construct: Full length (from UniProt Q9Y4K4)”, “NEK6, construct: Full length (from UniProt Q9HC98)” is higher in relative phosphorylation: 0.91 for the first, 1.01 for the second.

Compared with “SIK3, construct: aa1-307 (from UniProt Q9Y2K2)”, “TNIK, construct: aa1-314 (from UniProt Q9UKE5)” is higher in relative phosphorylation: 0.522 for the first, 1.22 for the second.

Compared with “SLK, construct: Full length (from UniProt Q9H2G2)”, “CDK10, construct: Full length (from UniProt Q15131)” is lower in relative phosphorylation: 1.16 for the first, 0.538 for the second.

Same assay, conditions: pTyr fixed; at -4

Compared with “PKN2, construct: aa501-984 (from UniProt Q16513)”, “IKBKE, construct: Full length (from UniProt Q14164)” is higher in relative phosphorylation: 0.741 for the first, 1.13 for the second.

Compared with “MAP4K5, construct: Full length (from UniProt Q9Y4K4)”, “NEK6, construct: Full length (from UniProt Q9HC98)” is higher in relative phosphorylation: 0.881 for the first, 1.01 for the second.

Going from “SIK3, construct: aa1-307 (from UniProt Q9Y2K2)” to “TNIK, construct: aa1-314 (from UniProt Q9UKE5)”, the relative phosphorylation rises from 0.627 to 1.15.

Compared with “SLK, construct: Full length (from UniProt Q9H2G2)”, “CDK10, construct: Full length (from UniProt Q15131)” is lower in relative phosphorylation: 1.07 for the first, 0.559 for the second.

Same assay, conditions: pTyr fixed; at -5

First: PKN2, construct: aa501-984 (from UniProt Q16513)
Second: IKBKE, construct: Full length (from UniProt Q14164)
The relative phosphorylation of the first is lower: 0.863 for the first, 1.03 for the second.

Compared with “MAP4K5, construct: Full length (from UniProt Q9Y4K4)”, “NEK6, construct: Full length (from UniProt Q9HC98)” is lower in relative phosphorylation: 1.1 for the first, 0.799 for the second.

First: SIK3, construct: aa1-307 (from UniProt Q9Y2K2)
Second: TNIK, construct: aa1-314 (from UniProt Q9UKE5)
The relative phosphorylation of the first is lower: 0.782 for the first, 1.03 for the second.

Going from “SLK, construct: Full length (from UniProt Q9H2G2)” to “CDK10, construct: Full length (from UniProt Q15131)”, the relative phosphorylation falls from 1.03 to 0.537.

— the supplement of paper PMC9876800
